The chains are these.
B1: DVSDKITFM (peptide)
peptide: DVSDKITFM
B2: DILDRTGHQL (peptide)
peptide: DILDRTGHQL
B3: SLIDITHGF (peptide)
peptide: SLIDITHGF
B4: APFKDVTEY (peptide)
peptide: APFKDVTEY
B5: GEPTSDITLL (peptide)
peptide: GEPTSDITLL
B6: NPADISVAL (peptide)
peptide: NPADISVAL
B7: HPFGYDLTL (peptide)
peptide: HPFGYDLTL
B8: SPKIFDSSW (peptide)
peptide: SPKIFDSSW
B9: FPYYLKIDY (peptide)
peptide: FPYYLKIDY
B10: VPRNQDESV (peptide)
peptide: VPRNQDESV
B11: LPFFTDKTLSF (peptide)
peptide: LPFFTDKTLSF
B12: HPDLTSMTF (peptide)
peptide: HPDLTSMTF
B13: AERDLDVTI (peptide)
peptide: AERDLDVTI
B14: AESLAVHDI (peptide)
peptide: AESLAVHDI
B15: DETAAYKIM (peptide)
peptide: DETAAYKIM
B16: DETIWYVRF (peptide)
peptide: DETIWYVRF
B17: DESKYTWSW (peptide)
peptide: DESKYTWSW
B18: DEAVRDITW (peptide)
peptide: DEAVRDITW
B19: QEVDISLHY (peptide)
peptide: QEVDISLHY
B20: GEYRCQTDL (peptide)
peptide: GEYRCQTDL
B21: TEGDFTKEASTY (peptide)
peptide: TEGDFTKEASTY
B22: AQDTTYLWW (peptide)
peptide: AQDTTYLWW
B23: KEVDDTLLVNEL (peptide)
peptide: KEVDDTLLVNEL
B24: AEFFDYTVRTL (peptide)
peptide: AEFFDYTVRTL
B25: TDFTKIASF (peptide)
peptide: TDFTKIASF
B26: KENQDHSYSL (peptide)
peptide: KENQDHSYSL
B27: RDATASLW (peptide)
peptide: RDATASLW
B28: KPREEQYDSTY (peptide)
peptide: KPREEQYDSTY
B29: DETHTLQF (peptide)
peptide: DETHTLQF
B30: LENMYDLTF (peptide)
peptide: LENMYDLTF
B31: RLPAADFTRY (peptide)
peptide: RLPAADFTRY
B32: KAYDQTHLY (peptide)
peptide: KAYDQTHLY
B33: IVRDLSCRK (peptide)
peptide: IVRDLSCRK
B34: HLYYDVTEK (peptide)
peptide: HLYYDVTEK
B35: NLYDWSASY (peptide)
peptide: NLYDWSASY
B36: RLWDFTMNAK (peptide)
peptide: RLWDFTMNAK
B37: VFDETKNLL (peptide)
peptide: VFDETKNLL
B38: IYQFARLDY (peptide)
peptide: IYQFARLDY
B39: AFDKTIVKL (peptide)
peptide: AFDKTIVKL
B40: VYLDASKVPGF (peptide)
peptide: VYLDASKVPGF
B41: EYQDFSTLF (peptide)
peptide: EYQDFSTLF
B42: YHDQTISF (peptide)
peptide: YHDQTISF
B43: HLFYDVTVF (peptide)
peptide: HLFYDVTVF
B44: RYVNDYTNSF (peptide)
peptide: RYVNDYTNSF
B45: RQDESYLNF (peptide)
peptide: RQDESYLNF
B46: IFVPTDRSL (peptide)
peptide: IFVPTDRSL
B47: VYVDTTELAL (peptide)
peptide: VYVDTTELAL
B48: KSYHDQTISF (peptide)
peptide: KSYHDQTISF
B49: VYIDDSVEL (peptide)
peptide: VYIDDSVEL
B50: IYPDGTLLI (peptide)
peptide: IYPDGTLLI
B51: QAIDLSLNF (peptide)
peptide: QAIDLSLNF
B52: TYLPTDASLSF (peptide)
peptide: TYLPTDASLSF

The first assay concerns the target T1, HLA-B*08:01 (human).
T1 construct: Peptide-receptive MHC class I monomer after UV cleavage of a UV-sensitive ligand
Kind of assay: UV-ligand exchange, anti-b2m ELISA; peptide exchange yield grade. The source says:
(§1) Candidate peptides for T cell based therapies according to the present invention were further tested for their MHC binding capacity (affinity). The individual peptide-MHC complexes were produced by UV-ligand exchange, where a UV-sensitive peptide is cleaved upon UV-irradiation and exchanged with the peptide of interest as analyzed. Only peptide candidates that can effectively bind and stabilize the peptide-receptive MHC molecules prevent dissociation of the MHC complexes. To determine the yield of the exchange reaction, an ELISA was performed based on the detection of the light chain (β2m) of stabilized MHC complexes. The assay was performed as generally described in Rodenko et al. (Rodenko et al., 2006).
(§2) 96 well MAXISorp plates (NUNC) were coated over night with 2 μg/ml streptavidin in PBS at room temperature, washed 4× and blocked for 1h at 37° C. in 2% BSA containing blocking buffer. Refolded HLA-A*02:01/MLA-001 monomers served as standards, covering the range of 15-500 ng/ml. Peptide-MHC monomers of the UV-exchange reaction were diluted 100-fold in blocking buffer. Samples were incubated for 1 h at 37° C., washed four times, incubated with 2 μg/ml HRP conjugated anti-β2m for 1h at 37° C., washed again and detected with TMB solution that is stopped with […]. Absorption was measured at 450 nm. Candidate peptides that show a high exchange yield (preferably higher than 50%, most preferred higher than 75%) are generally preferred for a generation and production of antibodies or fragments thereof, and/or T cell receptors or fragments thereof, as they show sufficient avidity to the MHC molecules and prevent dissociation of the MHC complexes.
As to B1, the binding result is recorded as “binds”.

On to B2, for which the binding result is listed as “binds”.

In the next assay the target is T2, HLA-A*02:01 (human).
T2 construct: Peptide-receptive MHC class I monomer after UV cleavage of a UV-sensitive ligand
Described as above.
Excerpt: as §1, §2
B3: the binding result is reported as “binds”.

Another assay concerns the target T3, HLA-B*07:02 (human).
T3 construct: Peptide-receptive MHC class I monomer after UV cleavage of a UV-sensitive ligand
Described as above.
Excerpt: as §1, §2
The molecule B4 came in with a peptide exchange yield of 50 to 75%.

B5 registered a peptide exchange yield of 50 to 75%.

With B6, the peptide exchange yield is no less than 75%.

B7 displayed a peptide exchange yield of no less than 75%.

The molecule B8 had a peptide exchange yield of 50 to 75%.

With B9, the peptide exchange yield was 50 to 75%.

Molecule B10 yielded a peptide exchange yield of no less than 75%.

B11 yielded a peptide exchange yield of no less than 75%.

Regarding B12, the peptide exchange yield is no less than 75%.

A further assay addresses T4, HLA-B*44:05 (human).
T4 construct: Peptide-receptive MHC class I monomer after UV cleavage of a UV-sensitive ligand
The assay is described as above.
Excerpt: as §1, §2
The molecule B13 came in with a peptide exchange yield of no less than 75%.

On to B14, for which the peptide exchange yield is 50 to 75%.

In turn, B15 returned a peptide exchange yield of 50 to 75%.

For the molecule B16, the peptide exchange yield was no less than 75%.

Take B17: the peptide exchange yield was no less than 75%.

Molecule B18 returned a peptide exchange yield of no less than 75%.

B19 had a peptide exchange yield of no less than 75%.

B20 displayed a peptide exchange yield of no less than 75%.

For B21, the peptide exchange yield was 50 to 75%.

On to B22, for which the peptide exchange yield is no less than 75%.

For the molecule B23, the peptide exchange yield is no less than 75%.

Consider B24, for which the peptide exchange yield is no less than 75%.

The molecule B25 had a peptide exchange yield of no less than 75%.

For the molecule B26, the peptide exchange yield was no less than 75%.

Molecule B27 displayed a peptide exchange yield of no less than 75%.

Turning to B28, the peptide exchange yield was no less than 75%.

For the molecule B29, the peptide exchange yield was no less than 75%.

For B30, the peptide exchange yield is no less than 75%.

The target of another assay is T5, HLA-A*03:01 (human).
T5 construct: Peptide-receptive MHC class I monomer after UV cleavage of a UV-sensitive ligand
The assay is described as above.
Excerpt: as §1, §2
The molecule B31 showed a peptide exchange yield of 20 to 50%.

For B32, the peptide exchange yield was no less than 75%.

In turn, B33 registered a peptide exchange yield of 50 to 75%.

In the case of B34, the peptide exchange yield was 50 to 75%.

The molecule B35 had a peptide exchange yield of 20 to 50%.

In the case of B36, the peptide exchange yield is 50 to 75%.

The target in another assay is T6, HLA-A*24:02 (human).
T6 construct: Peptide-receptive MHC class I monomer after UV cleavage of a UV-sensitive ligand
The assay is described as above.
Excerpt: as §1, §2
B37: the peptide exchange yield lay in the range of 20 to 50%.

B38 yielded a peptide exchange yield of 20 to 50%.

For B39, the peptide exchange yield was in the range of 20 to 50%.

Take B40: the peptide exchange yield is no less than 75%.

B41 displayed a peptide exchange yield of no less than 75%.

In turn, B42 had a peptide exchange yield of 10 to 20%.

As to B43, the peptide exchange yield was 20 to 50%.

In turn, B44 showed a peptide exchange yield of no less than 75%.

As to B45, the peptide exchange yield is 20 to 50%.

Turning to B46, the peptide exchange yield lay within 20 to 50%.

Consider B47, for which the peptide exchange yield was no less than 75%.

B48 yielded a peptide exchange yield of no less than 75%.

For the molecule B49, the peptide exchange yield is no less than 75%.

Molecule B50 gave a peptide exchange yield of no less than 75%.

With B51, the peptide exchange yield lay in the range of 20 to 50%.

In turn, B52 gave a peptide exchange yield of no less than 75%.

For the origin of these results see patent US20220098269A1 (IMMATICS BIOTECHNOLOGIES, published 2022).
